The data set in a line: protein stability index of a GFP-peptide fusion (GPS, HEK-293T) (PSI 1-6); higher = more stable.
Setting [1] is: treatment: DMSO, c terminus: a fixed tail appended.
[2] abbreviates: treatment: MLN4924 1 uM, 8 h, c terminus: a fixed tail appended.
The mark [3] stands for this setting: treatment: DMSO, c terminus: native.
Where [4] appears, read: treatment: MLN4924 1 uM, 8 h, c terminus: native.

± gives the standard deviation.
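Also: 24-mer peptide tiles fused after GFP, lentivirally expressed, FACS-sorted into six equal bins by GFP/DsRed ratio, decoded by Illumina sequencing, PSI is the read-weighted mean bin number.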

LLEDPLCADVILVLQERVRIFAHK [RHOBTB2] had a protein stability index under setting [1] of 2.21 ± 0.21 and a protein stability index under setting [2] of 2.5 ± 0.25.

Consider LLHSRNEGVATYAAAVLFRMSEDK [CTNNB1], for which the protein stability index under setting [1] was determined as 2.9 ± 0.36 and the protein stability index under setting [2] was found to be 3.22 ± 0.087.

For the sequence LLISCAVSYRGAWWYRNCHYANLN [TNXB], the protein stability index runs as follows: under setting [1], 2.97 ± 0.19; under setting [2], 2.99 ± 0.72.

In the case of LLKKKPPQQQHHKAKRNRTCRPPS [ANKRD17], the protein stability index was 3.93 ± 0.22 under setting [1] and 4 ± 0.29 under setting [2].

With LLPNPYQQDFLGLPEELRRLSGLS [C22orf15], the protein stability index worked out at 2.91 ± 0.17 under setting [1] and 2.91 ± 0.34 under setting [2].

As to LLPQERPLMQGPRTRPRKPIRCGE [KLHL20], the protein stability index came to 3.71 ± 0.35 under setting [1] and 3.98 ± 0.084 under setting [2].

Take LLQGAGLDVERWLKPAMTQAQDEV [FCHSD1]: the protein stability index stood at 3.6 ± 0.28 under setting [1] and 3.54 ± 0.26 under setting [2].

With LLTGQCDFGSNCRFSHMSERDLQE [ZMAT5], the protein stability index runs as follows: under setting [1], 2.67 ± 0.21; under setting [2], 2.78 ± 0.17.

Turning to LNDIFHLLKSHTNVLSVNLPDNFT [TPH1], the protein stability index is 2.35 ± 0.32 under setting [1] and 2.05 ± 0.41 under setting [2].

Regarding LNLGPALSAALASSQKQHSFTSSD [C8orf76], the protein stability index reads like this: under setting [1], 3.31 ± 0.31; under setting [2], 3.35 ± 0.19.

Turning to LNVQKTVDYTGQAKAQVRKAVQYE [STX11], the protein stability index by setting is: under setting [1], 3.99 ± 0.11; under setting [2], 4.09 ± 0.19.

Take LPDPNNYYHRRNEMTTTDDLDFKH [CPXM2]: the protein stability index was determined as 4.55 ± 0.23 under setting [1] and 4.7 ± 0.45 under setting [2].

Take LPIIQSNQVSSNSWGIAGETELAL [DLC1]: the protein stability index was determined as 3.52 ± 0.48 under setting [1] and 3.63 ± 0.2 under setting [2].

With LPLMDLCRRSVRLALGRERLGEIH [SPSB1], the protein stability index came to 2.56 ± 0.28 under setting [1] and 2.42 ± 0.29 under setting [2].

Turning to LPPPCAALWCSGHLNGHAMCQTKH [ADAMTS4], the protein stability index by setting is: under setting [1], 3.13 ± 0.24; under setting [2], 3.17 ± 0.3.

Regarding LPPPDPNPPRAEFNYSVGFKDLNE [APBB1IP], the protein stability index is, setting by setting: under setting [1], 4.42 ± 0.23; under setting [2], 4.36 ± 0.075.

With LQCLQALYVDSLFFLRGRLDQLLR [PRAME], the protein stability index stood at 2.09 ± 0.057 under setting [1] and 2.2 ± 0.61 under setting [2].

As to LQGALDLLAVLCVDGSGRARQAAC [ZSWIM9], the protein stability index runs as follows: under setting [1], 2.2 ± 0.27; under setting [2], 2.02 ± 0.18.

LQLETVLEGVVSQIDAVGSKLKML [PKD2L1]: the protein stability index reads like this: under setting [1], 2.37 ± 0.42; under setting [2], 2.37 ± 0.11.

Sequence LQQDFQNIQETHRLYRLKLEELTK [TMEM120A] registered a protein stability index under setting [1] of 3.3 ± 0.38 and a protein stability index under setting [2] of 3.37 ± 0.28.

As to LRAESDFEQLPDDVAISANIADIE [NCF4], the protein stability index reads like this: under setting [1], 4.66 ± 0.28; under setting [2], 5.21 ± 0.19.

LRASGSLCGPHAKAPYLCEATHEP returned a protein stability index under setting [1] of 2.84 ± 0.22 and a protein stability index under setting [2] of 3.1 ± 0.27.

Take LRDEHRCASKYGRDWERYTAAVPY [DHCR7]: the protein stability index is 2.67 ± 0.12 under setting [1] and 2.92 ± 0.2 under setting [2].

Turning to LRLCAWGLASWPLARGIHVAGILS [POMT2], the protein stability index amounted to 2.3 ± 0.26 under setting [1] and 2.22 ± 0.2 under setting [2].

For the sequence LRLEWETQQELRKIREKEEWIKLD [IQUB], the protein stability index runs as follows: under setting [1], 3.12 ± 0.62; under setting [2], 3.44 ± 0.63.

With LRLYKHNSQALLLHSSILTCTLLL [MFSD9], the protein stability index was determined as 2.74 ± 0.6 under setting [1] and 2.88 ± 0.67 under setting [2].

LRQLVESDINSLRRILDELTLCRS [KRT33B]: the protein stability index stood at 2.31 ± 0.14 under setting [1] and 2.41 ± 0.15 under setting [2].

For the sequence LSFATRFHRLDEPPHICWDETHFG [POMT2], the protein stability index is, setting by setting: under setting [1], 2.25 ± 0.29; under setting [2], 2.25 ± 0.26.

Consider LSGVDLELVGSGYRMSLVKRRFAT [FCHO1], for which the protein stability index was determined as 2.33 ± 0.2 under setting [1] and 2.37 ± 0.18 under setting [2].

Turning to LSRYLIEPCGPGKSKLTYMCRVDL [DLC1], the protein stability index worked out at 2.99 ± 0.73 under setting [1] and 3.2 ± 1.3 under setting [2].

In the case of LSSPEFSELCIWLGSQIKSLCNLE [FAM98B], the protein stability index under setting [1] turned out to be 2.17 ± 0.81 and the protein stability index under setting [2] amounted to 2.76 ± 0.82.

On to LSVLPQLEFKLKSNDNEERLQVVK [PDS5B], for which the protein stability index stood at 3.77 ± 0.11 under setting [1] and 3.7 ± 0.25 under setting [2].

LSVQQPTALALEPDAIRSRSNTLR [PCDHGC5]: the protein stability index by setting is: under setting [1], 4.43 ± 0.17; under setting [2], 4.56 ± 0.19.

Sequence LSWELLDSHLGGNARGMGIRSPRP [CTBP1-DT] displayed a protein stability index under setting [1] of 3.18 ± 0.46 and a protein stability index under setting [2] of 3.18 ± 0.3.

Regarding LTLVLVASVLLQAVLYPRFMGTIS [CD207], the protein stability index is 2.99 ± 0.28 under setting [1] and 3.25 ± 0.45 under setting [2].

Regarding LTQKKPFADEKNILHIMVKVVKGH [RIPK4], the protein stability index was found to be 2.01 ± 0.18 under setting [1] and 1.79 ± 0.48 under setting [2].

Take LVHSAVDVPTIQEKVNEGKYRSYE [ZMYND11]: the protein stability index runs as follows: under setting [1], 4.47 ± 0.3; under setting [2], 4.32 ± 0.2.

For LVPDASKQRLMENTEDWRPRPGTG [PDLIM7], the protein stability index stood at 4.47 ± 0.2 under setting [1] and 4.53 ± 0.32 under setting [2].

Regarding LVQLRNMVQQIQENSVEFEACLVA [TRIM9], the protein stability index is, setting by setting: under setting [1], 2.25 ± 0.1; under setting [2], 2.54 ± 0.37.

On to LVVFAVLGFKANIMNEKCVVENAE [SLC6A17], for which the protein stability index by setting is: under setting [1], 2.97 ± 0.32; under setting [2], 2.82 ± 0.39.

For the sequence LVVNIDNAKLASDDFRSKYQTEQS [KRT34], the protein stability index is, setting by setting: under setting [1], 3.65 ± 0.2; under setting [2], 3.62 ± 0.2.

As for LVYENFYADFGPLNLAMVYRYCCK [CDC14A], the protein stability index is, setting by setting: under setting [1], 2.8 ± 0.27; under setting [2], 2.5 ± 0.55.

On to LWEAPPLGAGGGSLLPGAVEQPQP [NEK8], for which the protein stability index by setting is: under setting [1], 4.42 ± 0.13; under setting [2], 4.36 ± 0.15.

For LYYLRASKAAAGKMNLYESFAQAT [INTS3], the protein stability index by setting is: under setting [1], 2.59 ± 0.39; under setting [2], 2.57 ± 0.31.

In the case of MAAGTSSYWEDLRKQARQLENELD [GOSR1], the protein stability index amounted to 4.11 ± 0.15 under setting [1] and 3.99 ± 0.25 under setting [2].

MADCILVNSQFTAAVFKETFKSLS [ALG2]: the protein stability index by setting is: under setting [1], 2.66 ± 0.42; under setting [2], 2.73 ± 0.55.

Take MAESLRSPRRSLYKLVGSPPWKEA [RPAIN]: the protein stability index runs as follows: under setting [1], 2.73 ± 0.48; under setting [2], 2.77 ± 0.53.

Consider MAGAATGSRTPGRSELVEGCGWRC [TRIM14], for which the protein stability index reads like this: under setting [1], 3.46 ± 0.32; under setting [2], 3.61 ± 0.26.

As to MAMYWGTSRWSSMEIMEAYSVARQ [KCNAB2], the protein stability index was 2.43 ± 0.52 under setting [1] and 2.06 ± 0.43 under setting [2].

Take MAPLLFNGCRSGEIFAIDLRCGNQ [DCAF4]: the protein stability index by setting is: under setting [1], 2.52 ± 0.29; under setting [2], 2.3 ± 0.56.

In the case of MASLGPAAAGEQASGAEAEPGPAG [BTBD1], the protein stability index runs as follows: under setting [1], 5.55 ± 0.16; under setting [2], 5.52 ± 0.31.

Turning to MEGKPMRRCTNIRPGETGMDVTSR [KLHL20], the protein stability index by setting is: under setting [1], 4.34 ± 0.085; under setting [2], 4.41 ± 0.19.

Consider MEPPGPVRGPLQDSSWYEPSAELV [ZNF232], for which the protein stability index was 4.79 ± 0.3 under setting [1] and 4.67 ± 0.43 under setting [2].

With MFFKDRFYMRTNPFYPEVELNFIS [MMP1], the protein stability index runs as follows: under setting [1], 2.44 ± 0.73; under setting [2], 2.71 ± 0.68.

Turning to MFVFQDGRWVNENCRLQSPYFSPS [CBY2], the protein stability index by setting is: under setting [1], 2.36 ± 0.37; under setting [2], 2.05 ± 0.42.

Consider MGCHGFRDPFECNMCGYHSQDRYE [IKZF1], for which the protein stability index reads like this: under setting [1], 3.2 ± 0.11; under setting [2], 3 ± 0.3.

In the case of MGGPAISMASPMSIPTNTMHYGS [CARM1], the protein stability index was 2.96 ± 0.25 under setting [3] and 2.95 ± 0.23 under setting [4].

For MHLARCRWASAPPLYTLIDVLKYS [ZSWIM9], the protein stability index amounted to 2.94 ± 0.22 under setting [1] and 2.43 ± 0.35 under setting [2].

Sequence MHMVDLMSSIICEGDTVSQELLDT [PDS5B] displayed a protein stability index under setting [1] of 3.6 ± 0.31 and a protein stability index under setting [2] of 3.57 ± 0.14.

As to MHYQMSVTLKYEIKKLIYVHLVIW [JAGN1], the protein stability index was determined as 3.1 ± 0.32 under setting [1] and 3.15 ± 0.8 under setting [2].

With MKLFLDCLKEFPEKQELHRNMLGL [ZER1], the protein stability index was 2.35 ± 0.11 under setting [1] and 2.4 ± 0.35 under setting [2].

For MKSAMRKLWSKKVSLAGKWLYHS [OR4A15], the protein stability index amounted to 2.47 ± 1.1 under setting [3] and 2.59 ± 0.44 under setting [4].

In the case of MLKIHRSDPQLIVQLRFCGRQPCG [TRADD], the protein stability index is, setting by setting: under setting [1], 2.46 ± 0.73; under setting [2], 1.92 ± 0.39.

Regarding MMHDQRTGPAWNVLMWTMLFLGQG [SOAT2], the protein stability index runs as follows: under setting [1], 2.8 ± 0.93; under setting [2], 2.65 ± 0.59.

For the sequence MNLMNELKQNFSKSWHDMQTTTAY [TPD52L1], the protein stability index is 2.62 ± 0.34 under setting [1] and 2.47 ± 0.15 under setting [2].

For MPHSVTLRGPSPWGFRLVGGRDFS [PDLIM4], the protein stability index runs as follows: under setting [1], 2.61 ± 0.37; under setting [2], 2.8 ± 0.23.

On to MQEDRDGSCSTVGGVGYGDSKDCI [ZNF277], for which the protein stability index reads like this: under setting [1], 5.04 ± 0.28; under setting [2], 5.1 ± 0.18.

For the sequence MQFLIRSHECKPEGYEFCHNRKVL [PPEF2], the protein stability index runs as follows: under setting [1], 2.28 ± 0.34; under setting [2], 2.55 ± 0.18.

Regarding MSADPHLASSLSPSQDERMRSPQN [NOL4L], the protein stability index was 5.17 ± 0.25 under setting [1] and 5.15 ± 0.24 under setting [2].

Turning to MSPGPLDALSSPTSVQEADETTRS [C2CD2L], the protein stability index came out at 5.35 ± 0.37 under setting [1] and 5.38 ± 0.15 under setting [2].

In the case of MSRVHGMHPKETTRQLSLAVKDGL [ZMYND11], the protein stability index was determined as 3.83 ± 0.22 under setting [1] and 3.89 ± 0.4 under setting [2].

MSVGHLRLLSHDQVAMPYQWEYPY [JAGN1] showed a protein stability index under setting [1] of 2.11 ± 0.29 and a protein stability index under setting [2] of 2.02 ± 0.4.
